Laboratory results from article PMC10546976.

Key:
neuPABP (PABPC1L2) = assay: EMSA; details: […] (100 nM), 1 h at 30 C, pH not stated
PABPC1 = PABPC1 (UniProt P11940 1-636); assay: EMSA
PABPC1, sequence (P11940 whole entry): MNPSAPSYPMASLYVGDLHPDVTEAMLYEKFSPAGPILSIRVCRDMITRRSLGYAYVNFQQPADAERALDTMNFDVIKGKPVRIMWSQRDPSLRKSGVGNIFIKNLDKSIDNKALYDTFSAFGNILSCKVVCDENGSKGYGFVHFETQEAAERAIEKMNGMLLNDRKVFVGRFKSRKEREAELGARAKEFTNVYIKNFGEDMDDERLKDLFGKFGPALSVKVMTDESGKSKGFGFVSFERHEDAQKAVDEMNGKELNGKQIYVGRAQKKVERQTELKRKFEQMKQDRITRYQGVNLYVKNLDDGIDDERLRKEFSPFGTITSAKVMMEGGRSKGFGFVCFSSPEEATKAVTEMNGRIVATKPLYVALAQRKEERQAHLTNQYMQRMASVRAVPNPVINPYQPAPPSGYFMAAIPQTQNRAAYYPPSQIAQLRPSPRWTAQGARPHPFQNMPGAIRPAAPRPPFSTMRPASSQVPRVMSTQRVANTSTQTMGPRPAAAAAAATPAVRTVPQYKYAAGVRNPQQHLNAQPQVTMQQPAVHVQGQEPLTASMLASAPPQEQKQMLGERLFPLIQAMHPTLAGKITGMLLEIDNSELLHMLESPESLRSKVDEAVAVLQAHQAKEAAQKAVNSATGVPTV

Row | Molecule | Kd (neuPABP (PABPC1L2)) [nM] | Kd (PABPC1) [nM]
1 | AAAAAAAAAAAAAAAAAAAAAAAAA [oligo(A)25] | 50 | –
2 | AAAAAAAAAAAAAAAAAAAAAAAAA (ssRNA) [oligo(A)25] | – | ~50
